The data set in a line: Thermal denaturation by differential scanning calorimetry (DSC). The data set is classed as physicochemical. The note with it: 1 mg/ml, 20 mM citrate pH6.2, 100 mM NaCl, 180° C./hour, non-2-state model. (Differential scanning calorimetry records heat flow against a reference as temperature is scanned.)

Drawing on patent US20130189255A1, “FUSIONS AND CONJUGATES OF INSULINOTROPIC AGENTS” (GLAXO GROUP LIMITED, priority 2008, published 2013), this text covers appTm for one substance.

Method: Protein was dialysed overnight into 20 mM citrate pH6.2, 100 mM NaCl, filtered and then prepared at concentration of 1 mg/ml as determined by absorbance at 280 nm. Filtered dialysis buffer was used as a reference for all samples. DSC was performed at a heating rate of 180° C./hour. Before each sample a solution of 1% decon, and then buffer were injected to clean the cells and to provide instrumental baseline. Obtained traces were analysed using Origin 7 Microcal software. The DSC trace obtained from the reference buffer was subtracted from the sample trace. Precise molar concentration of the sample was used for calculations (performed automatically by Origin). Baseline setting for both upper and lower baselines linear regions before/after transition were selected and connected using cubic connect function. The resulting graph is fitted to non-2-state model, generating apparent Tm, and ΔH/ΔHv values.

On to lysozyme, for which the appTm amounted to 76.2 °C.
